Test results taken from PMC4231051.

B1: BglA (β-glucosidase A) (Paenibacillus polymyxa; T231K) (protein)
chain: TIFQFPQDFMWGTATAAYQIEGAYQEDGRGLSIWDTFAHTPGKVFNGDNGNVACDSYHRYEEDIRLMKELGIRTYRFSVSWPRIFPNGDGEVNQEGLDYYHRVVDLLNDNGIEPFCTLYHWDLPQALQDAGGWGNRRTIQAFVQFAETMFREFHGKIQHWLTFNEPWCIAFLSNMLGVHAPGLTNLQTAIDVGHHLLVAHGLSVRRFRELGTSGQIGIAPNVSWAVPYSKSEEDKAACARTISLHSDWFLQPIYQGSYPQFLVDWFAEQGATVPIQDGDMDIIGEPIDMIGINYYSMSVNRFNPEAGFLQSEEINMGLPVTDIGWPVESRGLYEVLHYLQKYGNIDIYITENGACINDEVVNGKVQDDRRISYMQQHLVQVHRTIHDGLHVKGYMAWSLLDNFEWAEGYNMRFGMIHVDFRTQVRTPKESYYWYRNVVSNNWLETRR
B2: BglA (β-glucosidase A) (Paenibacillus polymyxa) (protein)
chain: TIFQFPQDFMWGTATAAYQIEGAYQEDGRGLSIWDTFAHTPGKVFNGDNGNVACDSYHRYEEDIRLMKELGIRTYRFSVSWPRIFPNGDGEVNQEGLDYYHRVVDLLNDNGIEPFCTLYHWDLPQALQDAGGWGNRRTIQAFVQFAETMFREFHGKIQHWLTFNEPWCIAFLSNMLGVHAPGLTNLQTAIDVGHHLLVAHGLSVRRFRELGTSGQIGIAPNVSWAVPYSTSEEDKAACARTISLHSDWFLQPIYQGSYPQFLVDWFAEQGATVPIQDGDMDIIGEPIDMIGINYYSMSVNRFNPEAGFLQSEEINMGLPVTDIGWPVESRGLYEVLHYLQKYGNIDIYITENGACINDEVVNGKVQDDRRISYMQQHLVQVHRTIHDGLHVKGYMAWSLLDNFEWAEGYNMRFGMIHVDFRTQVRTPKESYYWYRNVVSNNWLETRR
B3: BglA (β-glucosidase A) (Paenibacillus polymyxa; E96R) (protein)
chain: TIFQFPQDFMWGTATAAYQIEGAYQEDGRGLSIWDTFAHTPGKVFNGDNGNVACDSYHRYEEDIRLMKELGIRTYRFSVSWPRIFPNGDGEVNQRGLDYYHRVVDLLNDNGIEPFCTLYHWDLPQALQDAGGWGNRRTIQAFVQFAETMFREFHGKIQHWLTFNEPWCIAFLSNMLGVHAPGLTNLQTAIDVGHHLLVAHGLSVRRFRELGTSGQIGIAPNVSWAVPYSTSEEDKAACARTISLHSDWFLQPIYQGSYPQFLVDWFAEQGATVPIQDGDMDIIGEPIDMIGINYYSMSVNRFNPEAGFLQSEEINMGLPVTDIGWPVESRGLYEVLHYLQKYGNIDIYITENGACINDEVVNGKVQDDRRISYMQQHLVQVHRTIHDGLHVKGYMAWSLLDNFEWAEGYNMRFGMIHVDFRTQVRTPKESYYWYRNVVSNNWLETRR
B4: BglA (β-glucosidase A) (Paenibacillus polymyxa; Q216R) (protein)
chain: TIFQFPQDFMWGTATAAYQIEGAYQEDGRGLSIWDTFAHTPGKVFNGDNGNVACDSYHRYEEDIRLMKELGIRTYRFSVSWPRIFPNGDGEVNQEGLDYYHRVVDLLNDNGIEPFCTLYHWDLPQALQDAGGWGNRRTIQAFVQFAETMFREFHGKIQHWLTFNEPWCIAFLSNMLGVHAPGLTNLQTAIDVGHHLLVAHGLSVRRFRELGTSGRIGIAPNVSWAVPYSTSEEDKAACARTISLHSDWFLQPIYQGSYPQFLVDWFAEQGATVPIQDGDMDIIGEPIDMIGINYYSMSVNRFNPEAGFLQSEEINMGLPVTDIGWPVESRGLYEVLHYLQKYGNIDIYITENGACINDEVVNGKVQDDRRISYMQQHLVQVHRTIHDGLHVKGYMAWSLLDNFEWAEGYNMRFGMIHVDFRTQVRTPKESYYWYRNVVSNNWLETRR
B5: BglA (β-glucosidase A) (Paenibacillus polymyxa; E96K) (protein)
chain: TIFQFPQDFMWGTATAAYQIEGAYQEDGRGLSIWDTFAHTPGKVFNGDNGNVACDSYHRYEEDIRLMKELGIRTYRFSVSWPRIFPNGDGEVNQKGLDYYHRVVDLLNDNGIEPFCTLYHWDLPQALQDAGGWGNRRTIQAFVQFAETMFREFHGKIQHWLTFNEPWCIAFLSNMLGVHAPGLTNLQTAIDVGHHLLVAHGLSVRRFRELGTSGQIGIAPNVSWAVPYSTSEEDKAACARTISLHSDWFLQPIYQGSYPQFLVDWFAEQGATVPIQDGDMDIIGEPIDMIGINYYSMSVNRFNPEAGFLQSEEINMGLPVTDIGWPVESRGLYEVLHYLQKYGNIDIYITENGACINDEVVNGKVQDDRRISYMQQHLVQVHRTIHDGLHVKGYMAWSLLDNFEWAEGYNMRFGMIHVDFRTQVRTPKESYYWYRNVVSNNWLETRR

substrate: O=[N+]([O-])c1ccc(O[C@@H]2O[C@H](CO)[C@@H](O)[C@H](O)[C@H]2O)cc1; assay: purified protein; settings: 50 mM citrate phosphate buffer, pH 7.0, 37 °C, 5.5 min, 0.02-3 mM pNPG

Going from B1 to B2, the Km rises from 610 ± 70 µM to 1210 ± 30 µM (2-fold).

B3 and B4 are within error of each other in Km: 470 ± 20 µM for the first, 460 ± 0 µM for the second.

Protein B5 has a Km of 190 ± 10 µM.

B1 and B2 are within 1.5-fold of each other in kcat: 36.3 s⁻¹ for the first, 44.7 s⁻¹ for the second.

B3 and B4 are within 1.5-fold of each other in kcat: 21.2 s⁻¹ for the first, 26 s⁻¹ for the second.

In the case of B5, the kcat is reported as 28.4 s⁻¹.

Going from B1 to B2, the kcat/Km falls from 59300 M⁻¹ s⁻¹ to 36900 M⁻¹ s⁻¹ (1.6-fold).

B3 and B4 are within 1.5-fold of each other in kcat/Km: 44800 M⁻¹ s⁻¹ for the first, 56900 M⁻¹ s⁻¹ for the second.

B5 showed a kcat/Km of 149000 M⁻¹ s⁻¹.
